Residue numbers refer to the chain shown, from its start. In names and notes the source's numbering stands.
B1: SB06142: L354I/L391V/N413D/M421L/S463P/M517A/H524L (protein)
chain: SAGDMRAANLWPSPLMIKRSKKNSLALSLTADQMVSALLDAEPPILYSEYDPTRPFSEASMMGLLTNLADREIVHMINWAKRVPGFVDLTLHDQVHLLECAWLEILMIGVVWRSMEHPVKLLFAPNLLLDRDQGKCVEGLVEIFDMLLATSSRFRMMNLQGEEFVCLKSIILLNSGVYTFLPSTLKSLEEKDHIHRVLDKITDTLIHLMAKAGLTLQQQHQRLAQLLLILSHIRHASNKGMELLYSMKCKNVVPLYDLLLEAADAHRLHAPTSRGGASVEETDQSHLATAGSTSSHSLQKYYITGEAEGFPATA
B2: SB06136: L384M/L391V/N413D/M421L/S463P/H524L (protein)
chain: B1 chain with I73L, L103M, A236M
B3: SB06145: L409V/N413D/Q414E/M421L/S463P/H524L (protein)
chain: B1 chain with I73L, V110L, L128V, Q133E, A236M

What was measured:
[1] = following a typical clinical dose of tamoxifen; cited from earlier work
NK cells = assay: Validation of ERT2 mutants with mCherry reporter in NK cells; type: cell-based; conditions: primary NK cells
Experimental: After 10 days of feeder cell activation, NK cells were co-transduced with ERT2 mutant virus and reporter SB01066 virus (Experimental Set-up 1). On Day 2 after transduction, transduced NK cells were treated with endoxifen or 4-OHT at a range of concentrations of 0 nM, 0.01 nM, 0.1 nM, 1 nM, and 10 nM. On Day 4, cells were checked for mCherry expression by flow cytometry.

Row | Molecule | average peak plasma concentration [1] | 4-OHT concentration at which variant is sensitive (NK cells) [nM] | endoxifen concentration at which variant is sensitive (NK cells) [nM]
1 | CC/C(=C(\c1ccccc1)c1ccc(OCCN(C)C)cc1)c1ccccc1 [tamoxifen] | approximately 40 ng/mL | – | –
2 | B1 | – | 0.1 | 0.1
3 | B2 | – | 0.1 | 0.1
4 | B3 | – | 0.1 | 0.1
